According to patent US20140193378A1 (UNIVERSITY OF MIAMI, published 2014):
Non-standard residues stand in square brackets, D forms with d. No end group written: not given here. *: point of attachment. Desaminotyrosyl = O=C(CCc1ccc(O)cc1)*; NMeY = CN[C@@H](Cc1ccc(O)cc1)C(=O)O; hArg = N=C(N)NCCCC[C@H](N)C(=O)O; Nle = CCCC[C@H](N)C(=O)O; Orn = NCCC[C@H](N)C(=O)O; Abu = CC[C@H](N)C(=O)O; Aoc = NCCCCCCCC(=O)O; Ava = NCCCCC(=O)O

T1: human GHRH receptor (human pituitary membrane homogenates) (human) (UniProt Q02643)
T1 sequence (looked up): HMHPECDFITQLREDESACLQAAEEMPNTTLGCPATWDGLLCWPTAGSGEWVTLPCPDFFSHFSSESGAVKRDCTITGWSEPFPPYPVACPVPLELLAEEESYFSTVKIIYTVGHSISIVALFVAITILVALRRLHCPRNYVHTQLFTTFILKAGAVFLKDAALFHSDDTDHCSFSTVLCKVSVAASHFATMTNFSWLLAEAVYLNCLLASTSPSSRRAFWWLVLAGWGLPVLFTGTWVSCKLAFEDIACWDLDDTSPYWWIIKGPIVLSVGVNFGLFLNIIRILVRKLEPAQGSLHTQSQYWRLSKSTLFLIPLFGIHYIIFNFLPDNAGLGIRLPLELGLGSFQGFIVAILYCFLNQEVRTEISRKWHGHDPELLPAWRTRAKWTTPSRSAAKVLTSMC

T2: human GHRH receptor (human pituitary membrane homogenates) (human, UniProt Q02643 23-423)
T2 construct: whole, on cells; Native receptor in human pituitary membrane homogenates, not on intact cells; also called hGHRH receptor
T2 sequence (looked up): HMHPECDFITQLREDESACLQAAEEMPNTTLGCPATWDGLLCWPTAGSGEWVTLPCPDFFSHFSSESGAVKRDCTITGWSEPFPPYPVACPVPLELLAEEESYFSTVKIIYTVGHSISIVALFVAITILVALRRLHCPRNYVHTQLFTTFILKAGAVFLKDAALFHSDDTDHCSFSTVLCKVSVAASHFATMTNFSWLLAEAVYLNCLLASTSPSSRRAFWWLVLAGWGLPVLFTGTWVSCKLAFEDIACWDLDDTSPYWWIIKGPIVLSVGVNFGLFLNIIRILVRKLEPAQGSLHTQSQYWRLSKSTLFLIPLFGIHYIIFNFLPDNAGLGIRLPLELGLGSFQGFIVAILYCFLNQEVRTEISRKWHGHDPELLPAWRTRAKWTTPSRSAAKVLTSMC

T3: human GHRH receptor (human pituitary membrane homogenates) (human), Q02643
T3 chain: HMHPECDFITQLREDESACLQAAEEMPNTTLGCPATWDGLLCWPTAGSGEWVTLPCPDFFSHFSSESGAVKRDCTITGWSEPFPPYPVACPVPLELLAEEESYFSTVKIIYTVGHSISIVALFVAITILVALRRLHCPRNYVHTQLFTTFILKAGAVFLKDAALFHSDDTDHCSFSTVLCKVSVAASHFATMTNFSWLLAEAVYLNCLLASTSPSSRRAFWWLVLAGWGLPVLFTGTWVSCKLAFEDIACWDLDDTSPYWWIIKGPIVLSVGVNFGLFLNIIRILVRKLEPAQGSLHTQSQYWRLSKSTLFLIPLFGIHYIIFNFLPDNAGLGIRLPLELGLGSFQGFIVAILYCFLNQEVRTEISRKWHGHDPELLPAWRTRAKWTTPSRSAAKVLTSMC


Assays:
[1] = target: T1, human GHRH receptor (human pituitary membrane homogenates) (human); test: radioligand competition vs 125I-JV-1-42 (0.2 nM), human pituitary membranes
[2] = target: T2, human GHRH receptor (human pituitary …); test: radioligand competition vs [His1,125I-Tyr10,Nle27]hGHRH(1-32)NH2 (0.2 nM), human pituitary membranes
Text: Normal human pituitaries were purchased from the National Hormone and Peptide Program (A. F. Parlow, Los Angeles, County Harbor—UCLA Medical Center, Torrance, Calif.).

[3] = target: T3, human GHRH receptor (human pituitary …); test: radioligand competition vs 125I-JV-1-42 (0.2 nM), human pituitary membranes

| Relative affinity (Binding potency) vs JI-38 [1] [fold] | Relative affinity (Binding potency) vs GHRH [2] [fold] | Relative affinity (Binding potency) vs JI-38 [2] [fold] | Molecule | further results |
| --- | --- | --- | --- | --- |
| 1.45 |  |  | P-27407 [Dat^1, Gln^8, Orn^12, Abu^15, Orn^21, Nle^27, Asp^28]hGHRH(1-29)NH-CH3 (peptide) |  |
| 14.5 |  |  | P-27406 [N-Me-Tyr^1, Gln^8, Orn^12, Abu^15, Orn^21, Nle^27, Asp^28]hGHRH(1-29)NH-CH3 (peptide) |  |
| 1.14 |  |  | [NMeY]ADAIFTQSYR[Orn]VL[Abu]QLSAR[Orn]LLQDI[Nle]DR[Ava]-NH2 (peptide, from a related filing) [P-22325 [N-Me-Tyr^1, Gln^8, Orn^12, Abu^15, Orn^21, Nle^27, Asp^28, Apa^30]hGHRH(1-30)NH2] |  |
|  | 42.3 | 13.9 | [Desaminotyrosyl][dA]DAIFTNSYR[Orn]VL[Abu]QLSAR[Orn]LLQDI[Nle]DR[hArg]-NH2 (SMILES CCCC[C@H](NC(=O)[C@@H](NC(=O)[C@H](CC(=O)O)NC(=O)[C@H](CCC(N)=O)NC(=O)[C@H](CC(C)C)NC(=O)[C@H](CC(C)C)NC(=O)[C@H](CCCN)NC(=O)[C@H](CCCNC(=N)N)NC(=O)[C@H](C)NC(=O)[C@H](CO)NC(=O)[C@H](CC(C)C)NC(=O)[C@H](CCC(N)=O)NC(=O)[C@H](CC)NC(=O)[C@H](CC(C)C)NC(=O)[C@@H](NC(=O)[C@H](CCCN)NC(=O)[C@H](CCCNC(=N)N)NC(=O)[C@H](Cc1ccc(O)cc1)NC(=O)[C@H](CO)NC(=O)[C@H](CC(N)=O)NC(=O)[C@@H](NC(=O)[C@H](Cc1ccccc1)NC(=O)[C@@H](NC(=O)[C@H](C)NC(=O)[C@H](CC(=O)O)NC(=O)[C@@H](C)NC(=O)CCc1ccc(O)cc1)[C@@H](C)CC)[C@@H](C)O)C(C)C)[C@@H](C)CC)C(=O)N[C@@H](CC(=O)O)C(=O)N[C@@H](CCCNC(=N)N)C(=O)N[C@@H](CCCCNC(=N)N)C(N)=O, also called Peptide 23252) [P-23252 [Dat^1-D-Ala^2, Orn^12, Abu^15, Orn^21, Nle^27, Asp^28, Har^30]hGHRH(1-30)NH2] |  |
|  | 148 | 48.7 | [Desaminotyrosyl][dA]DAIFTASYR[Orn]VL[Abu]QLSAR[Orn]LLQDI[Nle]DR[hArg]-NH2 (SMILES CCCC[C@H](NC(=O)[C@@H](NC(=O)[C@H](CC(=O)O)NC(=O)[C@H](CCC(N)=O)NC(=O)[C@H](CC(C)C)NC(=O)[C@H](CC(C)C)NC(=O)[C@H](CCCN)NC(=O)[C@H](CCCNC(=N)N)NC(=O)[C@H](C)NC(=O)[C@H](CO)NC(=O)[C@H](CC(C)C)NC(=O)[C@H](CCC(N)=O)NC(=O)[C@H](CC)NC(=O)[C@H](CC(C)C)NC(=O)[C@@H](NC(=O)[C@H](CCCN)NC(=O)[C@H](CCCNC(=N)N)NC(=O)[C@H](Cc1ccc(O)cc1)NC(=O)[C@H](CO)NC(=O)[C@H](C)NC(=O)[C@@H](NC(=O)[C@H](Cc1ccccc1)NC(=O)[C@@H](NC(=O)[C@H](C)NC(=O)[C@H](CC(=O)O)NC(=O)[C@@H](C)NC(=O)CCc1ccc(O)cc1)[C@@H](C)CC)[C@@H](C)O)C(C)C)[C@@H](C)CC)C(=O)N[C@@H](CC(=O)O)C(=O)N[C@@H](CCCNC(=N)N)C(=O)N[C@@H](CCCCNC(=N)N)C(N)=O, also called Peptide 23256) [P-23256 [Dat^1, D-Ala^2, Ala^8, Orn^12, Abu^15, Orn^21, Nle^27, Asp^28, Har^30]hGHRH(1-30)NH2] |  |
|  | 74 | 24.4 | [Desaminotyrosyl][dA]DAIFTQSYR[Orn]VL[Abu]QLSAR[Orn]LLQDI[Nle]DR[Aoc]-NH2 (SMILES CCCC[C@H](NC(=O)[C@@H](NC(=O)[C@H](CC(=O)O)NC(=O)[C@H](CCC(N)=O)NC(=O)[C@H](CC(C)C)NC(=O)[C@H](CC(C)C)NC(=O)[C@H](CCCN)NC(=O)[C@H](CCCNC(=N)N)NC(=O)[C@H](C)NC(=O)[C@H](CO)NC(=O)[C@H](CC(C)C)NC(=O)[C@H](CCC(N)=O)NC(=O)[C@H](CC)NC(=O)[C@H](CC(C)C)NC(=O)[C@@H](NC(=O)[C@H](CCCN)NC(=O)[C@H](CCCNC(=N)N)NC(=O)[C@H](Cc1ccc(O)cc1)NC(=O)[C@H](CO)NC(=O)[C@H](CCC(N)=O)NC(=O)[C@@H](NC(=O)[C@H](Cc1ccccc1)NC(=O)[C@@H](NC(=O)[C@H](C)NC(=O)[C@H](CC(=O)O)NC(=O)[C@@H](C)NC(=O)CCc1ccc(O)cc1)[C@@H](C)CC)[C@@H](C)O)C(C)C)[C@@H](C)CC)C(=O)N[C@@H](CC(=O)O)C(=O)N[C@@H](CCCNC(=N)N)C(=O)NCCCCCCCC(N)=O, also called Peptide 21304) [P-21304 [Dat^1, D-Ala^2, Gln^8, Orn^12, Abu^15, Orn^21, Nle^27, Asp^28, Amc^30]hGHRH(1-30)NH2] |  |
|  | 84.5 | 27.8 | [Desaminotyrosyl][dA]DAIFTTSYR[Orn]VL[Abu]QLSAR[Orn]LLQDI[Nle]DR[hArg]-NH2 (SMILES CCCC[C@H](NC(=O)[C@@H](NC(=O)[C@H](CC(=O)O)NC(=O)[C@H](CCC(N)=O)NC(=O)[C@H](CC(C)C)NC(=O)[C@H](CC(C)C)NC(=O)[C@H](CCCN)NC(=O)[C@H](CCCNC(=N)N)NC(=O)[C@H](C)NC(=O)[C@H](CO)NC(=O)[C@H](CC(C)C)NC(=O)[C@H](CCC(N)=O)NC(=O)[C@H](CC)NC(=O)[C@H](CC(C)C)NC(=O)[C@@H](NC(=O)[C@H](CCCN)NC(=O)[C@H](CCCNC(=N)N)NC(=O)[C@H](Cc1ccc(O)cc1)NC(=O)[C@H](CO)NC(=O)[C@@H](NC(=O)[C@@H](NC(=O)[C@H](Cc1ccccc1)NC(=O)[C@@H](NC(=O)[C@H](C)NC(=O)[C@H](CC(=O)O)NC(=O)[C@@H](C)NC(=O)CCc1ccc(O)cc1)[C@@H](C)CC)[C@@H](C)O)[C@@H](C)O)C(C)C)[C@@H](C)CC)C(=O)N[C@@H](CC(=O)O)C(=O)N[C@@H](CCCNC(=N)N)C(=O)N[C@@H](CCCCNC(=N)N)C(N)=O, also called Peptide 23254) [P-23254 [Dat^1, D-Ala^2, Thr^8, Orn^12, Abu^15, Orn^21, Nle^27, Asp^28, Har^30]hGHRH(1-30)NH2] |  |
|  |  |  | [Desaminotyrosyl]ADAIFTQSYH[Orn]VL[Abu]QLSAH[Orn]LLQDI[Nle]DR-NHMe (SMILES CCCC[C@H](NC(=O)[C@@H](NC(=O)[C@H](CC(=O)O)NC(=O)[C@H](CCC(N)=O)NC(=O)[C@H](CC(C)C)NC(=O)[C@H](CC(C)C)NC(=O)[C@H](CCCN)NC(=O)[C@H](Cc1c[nH]cn1)NC(=O)[C@H](C)NC(=O)[C@H](CO)NC(=O)[C@H](CC(C)C)NC(=O)[C@H](CCC(N)=O)NC(=O)[C@H](CC)NC(=O)[C@H](CC(C)C)NC(=O)[C@@H](NC(=O)[C@H](CCCN)NC(=O)[C@H](Cc1c[nH]cn1)NC(=O)[C@H](Cc1ccc(O)cc1)NC(=O)[C@H](CO)NC(=O)[C@H](CCC(N)=O)NC(=O)[C@@H](NC(=O)[C@H](Cc1ccccc1)NC(=O)[C@@H](NC(=O)[C@H](C)NC(=O)[C@H](CC(=O)O)NC(=O)[C@H](C)NC(=O)CCc1ccc(O)cc1)[C@@H](C)CC)[C@@H](C)O)C(C)C)[C@@H](C)CC)C(=O)N[C@@H](CC(=O)O)C(=O)N[C@@H](CCCNC(=N)N)C(=O)NC) [P-27413 [Dat^1, Gln^8, His^11, Orn^12, Abu^15, His^20, Orn^21, Nle^27, Asp^28]hGHRH(1-29)NH-CH3] | IC50 [3]: 2.45 nM; Relative affinity (Binding potency) vs JI-38 [3]: 1.78 fold |
